Broadly, the Kd is the free concentration of one partner at which half of the binding sites on the other are occupied at equilibrium, for simple one-to-one binding. Read a low Kd as a tighter complex.

From patent publication US20150203577A1 (Chugai, published 2015) come the findings set out here.

One test addresses T1, mouse FcγRII (mouse, UniProt P08101 30-210).
T1 construct: also called mFcγRII; mFcgRII
T1 sequence: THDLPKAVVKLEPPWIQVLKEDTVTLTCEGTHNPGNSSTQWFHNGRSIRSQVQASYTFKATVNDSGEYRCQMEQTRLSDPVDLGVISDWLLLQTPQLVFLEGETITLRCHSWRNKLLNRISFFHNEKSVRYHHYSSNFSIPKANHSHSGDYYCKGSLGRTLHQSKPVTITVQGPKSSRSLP
The experiment in a line: SPR (Biacore), antibody captured on Protein L, mFcγR as analyte. (SPR reads the build-up and loss of mass on a sensor chip optically.)

Another test deals with T2, mouse FcγRIII (mouse, UniProt P08508 31-215).
T2 construct: also called mFcγRIII; mFcgRIII
T2 chain: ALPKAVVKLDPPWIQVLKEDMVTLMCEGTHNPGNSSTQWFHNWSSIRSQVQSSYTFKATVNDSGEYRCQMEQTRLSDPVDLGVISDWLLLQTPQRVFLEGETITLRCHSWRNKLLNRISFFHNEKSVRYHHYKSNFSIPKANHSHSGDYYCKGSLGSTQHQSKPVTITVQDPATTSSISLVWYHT
The description is as above.

B1: H237-MB703/MRAL-k0 (antibody, mouse IgG1, kappa)
heavy: QVQLQESGPGLVKPSETLSLTCAVSGHSISHDHAWSWVRQPPGEGLEWIGFISYSGITNYNPSLQGRVTISRDNSKNTLYLQMNSLRAEDTAVYYCARSLARTTAMDYWGEGTLVTVSSAKTTPPSVYPLAPGSAAQTNSMVTLGCLVKGYFPEPVTVTWNSGSLSSGVHTFPAVLQSDLYTLSSSVTVPSSTWPSETVTCNVAHPASSTKVDKKIVPRDCGCKPCICEAPEVENVFIFPPKPKDVLTITLTPKVTCVVVDISKDDPEVQFSWFVDDVEVHTAQTQPREEQFNSTFRSVSELPIMHQDWLNGKEFKCRVNSAAFPAPIEKTISKTKGRPKAPQVYTIPPPKEQMAKDKVSLTCMITDFFPEDITVEWQWNGQPAENYKNTQPIMDTDGSYFVYSKLNVQKSNWEAGNTFTCSVLHEGLHNHHTEKSLSHSPGK
light: not shown
notes: mouse IgG1 CH variant; copies: 2 + 2
Take B1: in the test with mouse FcγRII, the Kd came out at 0.345 µM and the “relative mFcγRII-binding activity (mIgG1 = 1)” value turned out to be 0.94 fold. Also, in the test with mouse FcγRIII, binding was put at a Kd of 4.9 µM and the “relative mFcγRIII-binding activity (mIgG1 = 1)” value worked out at 0.1 fold.

B2: H237-MB731/MRAL-k0 (antibody, mouse IgG1, kappa)
heavy: QVQLQESGPGLVKPSETLSLTCAVSGHSISHDHAWSWVRQPPGEGLEWIGFISYSGITNYNPSLQGRVTISRDNSKNTLYLQMNSLRAEDTAVYYCARSLARTTAMDYWGEGTLVTVSSAKTTPPSVYPLAPGSAAQTNSMVTLGCLVKGYFPEPVTVTWNSGSLSSGVHTFPAVLQSDLYTLSSSVTVPSSTWPSETVTCNVAHPASSTKVDKKIVPRDCGCKPCICEPAEEELVFIFPPKPKDVLTITLTPKVTCVVVDISKDDPEVQFSWFVDDVEVHTAQTQPREEQFNSTFRSVSELPIMHQDWLNGKEFKCRVNSAAFPAPIEKTISKTKGRPKAPQVYTIPPPKEQMAKDKVSLTCMITDFFPEDITVEWQWNGQPAENYKNTQPIMDTDGSYFVYSKLNVQKSNWEAGNTFTCSVLHEGLHNHHTEKSLSHSPGK
light: not shown
notes: as for B1
For the molecule B2, in the test with mouse FcγRII, the Kd stood at 0.238 µM and the “relative mFcγRII-binding activity (mIgG1 = 1)” value stood at 1.13 fold. Moreover, in the test with mouse FcγRIII, the Kd was 15.3 µM and the “relative mFcγRIII-binding activity (mIgG1 = 1)” value came out at 0.03 fold.

B3: H237-MB755/MRAL-k0 (antibody, mouse IgG1, kappa)
heavy: QVQLQESGPGLVKPSETLSLTCAVSGHSISHDHAWSWVRQPPGEGLEWIGFISYSGITNYNPSLQGRVTISRDNSKNTLYLQMNSLRAEDTAVYYCARSLARTTAMDYWGEGTLVTVSSAKTTPPSVYPLAPGSAAQTNSMVTLGCLVKGYFPEPVTVTWNSGSLSSGVHTFPAVLQSDLYTLSSSVTVPSSTWPSETVTCNVAHPASSTKVDKKIVPRDCGCKPCICEPNEVELVFIFPPKPKDVLTITLTPKVTCVVVDISKDDPEVQFSWFVDDVEVHTAQTQPREEQFNLTFRSVSELPIMHQDWLNGKEFKCRVDSAAFPAPIEKTISKTKGRPKAPQVYTIPPPKEQMAKDKVSLTCMITDFFPEDITVEWQWNGQPAENYKNTQPIMDTDGSYFVYSKLNVQKSNWEAGNTFTCSVLHEGLHNHHTEKSLSHSPGK
light: not shown
notes: as for B1
With B3, in the test with mouse FcγRII, the Kd is 0.0278 µM and the “relative mFcγRII-binding activity (mIgG1 = 1)” value is 6.62 fold. Moreover, in the test with mouse FcγRIII, the affinity, expressed as Kd, was 2.5 µM and the “relative mFcγRIII-binding activity (mIgG1 = 1)” value is 0.15 fold.

B4: H237-MB715/MRAL-k0 (antibody, mouse IgG1, kappa)
heavy: QVQLQESGPGLVKPSETLSLTCAVSGHSISHDHAWSWVRQPPGEGLEWIGFISYSGITNYNPSLQGRVTISRDNSKNTLYLQMNSLRAEDTAVYYCARSLARTTAMDYWGEGTLVTVSSAKTTPPSVYPLAPGSAAQTNSMVTLGCLVKGYFPEPVTVTWNSGSLSSGVHTFPAVLQSDLYTLSSSVTVPSSTWPSETVTCNVAHPASSTKVDKKIVPRDCGCKPCICEPNEVEVVFIFPPKPKDVLTITLTPKVTCVVVDISKDDPEVQFSWFVDDVEVHTAQTQPREEQFNSTFRSVSELPIMHQDWLNGKEFKCRVNSAAFPAPIEKTISKTKGRPKAPQVYTIPPPKEQMAKDKVSLTCMITDFFPEDITVEWQWNGQPAENYKNTQPIMDTDGSYFVYSKLNVQKSNWEAGNTFTCSVLHEGLHNHHTEKSLSHSPGK
light: not shown
notes: as for B1
For the molecule B4, in the test with mouse FcγRII, the affinity, expressed as Kd, was 0.236 µM and the “relative mFcγRII-binding activity (mIgG1 = 1)” value came out at 1.14 fold. In the test with mouse FcγRIII, binding was put at a Kd of 11.9 µM and the “relative mFcγRIII-binding activity (mIgG1 = 1)” value is 0.04 fold.

B5: H237-MB718/MRAL-k0 (antibody, mouse IgG1, kappa)
heavy: QVQLQESGPGLVKPSETLSLTCAVSGHSISHDHAWSWVRQPPGEGLEWIGFISYSGITNYNPSLQGRVTISRDNSKNTLYLQMNSLRAEDTAVYYCARSLARTTAMDYWGEGTLVTVSSAKTTPPSVYPLAPGSAAQTNSMVTLGCLVKGYFPEPVTVTWNSGSLSSGVHTFPAVLQSDLYTLSSSVTVPSSTWPSETVTCNVAHPASSTKVDKKIVPRDCGCKPCICEPNEVETVFIFPPKPKDVLTITLTPKVTCVVVDISKDDPEVQFSWFVDDVEVHTAQTQPREEQFNSTFRSVSELPIMHQDWLNGKEFKCRVNSAAFPAPIEKTISKTKGRPKAPQVYTIPPPKEQMAKDKVSLTCMITDFFPEDITVEWQWNGQPAENYKNTQPIMDTDGSYFVYSKLNVQKSNWEAGNTFTCSVLHEGLHNHHTEKSLSHSPGK
light: not shown
notes: as for B1
With B5, in the test with mouse FcγRII, binding was characterised by a dissociation constant (Kd) of 0.247 µM and the “relative mFcγRII-binding activity (mIgG1 = 1)” value was 1.08 fold. In addition, in the test with mouse FcγRIII, binding was put at a Kd of 5.56 µM and the “relative mFcγRIII-binding activity (mIgG1 = 1)” value worked out at 0.08 fold.

B6: H237-MB752/MRAL-k0 (antibody, mouse IgG1, kappa)
heavy: QVQLQESGPGLVKPSETLSLTCAVSGHSISHDHAWSWVRQPPGEGLEWIGFISYSGITNYNPSLQGRVTISRDNSKNTLYLQMNSLRAEDTAVYYCARSLARTTAMDYWGEGTLVTVSSAKTTPPSVYPLAPGSAAQTNSMVTLGCLVKGYFPEPVTVTWNSGSLSSGVHTFPAVLQSDLYTLSSSVTVPSSTWPSETVTCNVAHPASSTKVDKKIVPRDCGCKPCICEPNEVELVFIFPPKPKDVLTITLTPKVTCVVVDISKDDPEVQFSWFVDDVEVHTAQTQPREEQFNLTFRSVSELPIMHQDWLNGKEFKCRVNSAAFPAPIEKTISKTKGRPKAPQVYTIPPPKEQMAKDKVSLTCMITDFFPEDITVEWQWNGQPAENYKNTQPIMDTDGSYFVYSKLNVQKSNWEAGNTFTCSVLHEGLHNHHTEKSLSHSPGK
light: not shown
notes: as for B1
Regarding B6, in the test with mouse FcγRII, the Kd worked out at 0.0351 µM and the “relative mFcγRII-binding activity (mIgG1 = 1)” value was 5.24 fold. Also, in the test with mouse FcγRIII, the affinity, expressed as Kd, was 3.28 µM and the “relative mFcγRIII-binding activity (mIgG1 = 1)” value is 0.11 fold.

B7: H237-MB716/MRAL-k0 (antibody, mouse IgG1, kappa)
heavy: QVQLQESGPGLVKPSETLSLTCAVSGHSISHDHAWSWVRQPPGEGLEWIGFISYSGITNYNPSLQGRVTISRDNSKNTLYLQMNSLRAEDTAVYYCARSLARTTAMDYWGEGTLVTVSSAKTTPPSVYPLAPGSAAQTNSMVTLGCLVKGYFPEPVTVTWNSGSLSSGVHTFPAVLQSDLYTLSSSVTVPSSTWPSETVTCNVAHPASSTKVDKKIVPRDCGCKPCICEPNEVEIVFIFPPKPKDVLTITLTPKVTCVVVDISKDDPEVQFSWFVDDVEVHTAQTQPREEQFNSTFRSVSELPIMHQDWLNGKEFKCRVNSAAFPAPIEKTISKTKGRPKAPQVYTIPPPKEQMAKDKVSLTCMITDFFPEDITVEWQWNGQPAENYKNTQPIMDTDGSYFVYSKLNVQKSNWEAGNTFTCSVLHEGLHNHHTEKSLSHSPGK
light: not shown
notes: as for B1
For B7, in the test with mouse FcγRII, the Kd was 0.0528 µM and the “relative mFcγRII-binding activity (mIgG1 = 1)” value is 5.07 fold. In the test with mouse FcγRIII, the Kd was determined as 6.15 µM and the “relative mFcγRIII-binding activity (mIgG1 = 1)” value turned out to be 0.08 fold.

B8: H237-MB753/MRAL-k0 (antibody, mouse IgG1, kappa)
heavy: QVQLQESGPGLVKPSETLSLTCAVSGHSISHDHAWSWVRQPPGEGLEWIGFISYSGITNYNPSLQGRVTISRDNSKNTLYLQMNSLRAEDTAVYYCARSLARTTAMDYWGEGTLVTVSSAKTTPPSVYPLAPGSAAQTNSMVTLGCLVKGYFPEPVTVTWNSGSLSSGVHTFPAVLQSDLYTLSSSVTVPSSTWPSETVTCNVAHPASSTKVDKKIVPRDCGCKPCICEPNEVELVFIFPPKPKDVLTITLTPKVTCVVVDISKDDPEVQFSWFVDDVEVHTAQTQPREEQFNMTFRSVSELPIMHQDWLNGKEFKCRVNSAAFPAPIEKTISKTKGRPKAPQVYTIPPPKEQMAKDKVSLTCMITDFFPEDITVEWQWNGQPAENYKNTQPIMDTDGSYFVYSKLNVQKSNWEAGNTFTCSVLHEGLHNHHTEKSLSHSPGK
light: not shown
notes: as for B1
As for B8, in the test with mouse FcγRII, the Kd came to 0.0368 µM and the “relative mFcγRII-binding activity (mIgG1 = 1)” value was determined as 5 fold. Besides, in the test with mouse FcγRIII, the affinity, expressed as Kd, was 4.26 µM and the “relative mFcγRIII-binding activity (mIgG1 = 1)” value came out at 0.09 fold.

B9: H237-MB732/MRAL-k0 (antibody, mouse IgG1, kappa)
heavy: QVQLQESGPGLVKPSETLSLTCAVSGHSISHDHAWSWVRQPPGEGLEWIGFISYSGITNYNPSLQGRVTISRDNSKNTLYLQMNSLRAEDTAVYYCARSLARTTAMDYWGEGTLVTVSSAKTTPPSVYPLAPGSAAQTNSMVTLGCLVKGYFPEPVTVTWNSGSLSSGVHTFPAVLQSDLYTLSSSVTVPSSTWPSETVTCNVAHPASSTKVDKKIVPRDCGCKPCICEPNEEELVFIFPPKPKDVLTITLTPKVTCVVVDISKDDPEVQFSWFVDDVEVHTAQTQPREEQFNSTFRSVSELPIMHQDWLNGKEFKCRVNSAAFPAPIEKTISKTKGRPKAPQVYTIPPPKEQMAKDKVSLTCMITDFFPEDITVEWQWNGQPAENYKNTQPIMDTDGSYFVYSKLNVQKSNWEAGNTFTCSVLHEGLHNHHTEKSLSHSPGK
light: not shown
notes: as for B1
In the case of B9, in the test with mouse FcγRII, binding was put at a Kd of 0.321 µM and the “relative mFcγRII-binding activity (mIgG1 = 1)” value stood at 0.84 fold. In the test with mouse FcγRIII, the Kd turned out to be 13.7 µM and the “relative mFcγRIII-binding activity (mIgG1 = 1)” value was 0.03 fold.

B10: H237-MB748/MRAL-k0 (antibody, mouse IgG1, kappa)
heavy: QVQLQESGPGLVKPSETLSLTCAVSGHSISHDHAWSWVRQPPGEGLEWIGFISYSGITNYNPSLQGRVTISRDNSKNTLYLQMNSLRAEDTAVYYCARSLARTTAMDYWGEGTLVTVSSAKTTPPSVYPLAPGSAAQTNSMVTLGCLVKGYFPEPVTVTWNSGSLSSGVHTFPAVLQSDLYTLSSSVTVPSSTWPSETVTCNVAHPASSTKVDKKIVPRDCGCKPCICEPNEVELVFIFPPKPKDVLTITLTPKVTCVVVDIAKDDPEVQFSWFVDDVEVHTAQTQPREEQFNSTFRSVSELPIMHQDWLNGKEFKCRVNSAAFPAPIEKTISKTKGRPKAPQVYTIPPPKEQMAKDKVSLTCMITDFFPEDITVEWQWNGQPAENYKNTQPIMDTDGSYFVYSKLNVQKSNWEAGNTFTCSVLHEGLHNHHTEKSLSHSPGK
light: not shown
notes: as for B1
As for B10, in the test with mouse FcγRII, the Kd turned out to be 0.0179 µM and the “relative mFcγRII-binding activity (mIgG1 = 1)” value stood at 10.3 fold. Besides, in the test with mouse FcγRIII, the affinity, expressed as Kd, was 2.06 µM and the “relative mFcγRIII-binding activity (mIgG1 = 1)” value stood at 0.18 fold.
